Data set [1] concerns the molecule itself. In words: AUC; sedimentation equilibrium, 12,000 and 14,000 rpm, 20 mM sodium acetate pH 5, 150 mM NaCl, 3 mM KCl; dimer to monomers, limit calculated from detection of 10% monomer.
Data set [2] concerns the molecule itself. In words: AUC; sedimentation equilibrium, 12,000 and 14,000 rpm, 25 °C, 20 mM sodium phosphate pH 7.4, 150 mM NaCl, 3 mM KCl; monomer-dimer equilibrium model (SEDPHAT); dimer to monomers.

Some results are limits rather than exact numbers.

B1: recombinant human β-gal (rhβ-gal) (enzyme)
chain: QRMFEIDYSRDSFLKDGQPFRYISGSIHYSRVPRFYWKDRLLKMKMAGLNAIQTYVPWNFHEPWPGQYQFSEDHDVEYFLRLAHELGLLVILRPGPYICAEWEMGGLPAWLLEKESILLRSSDPDYLAAVDKWLGVLLPKMKPLLYQNGGPVITVQVENEYGSYFACDFDYLRFLQKRFRHHLGDDVVLFTTDGAHKTFLKCGALQGLYTTVDFGTGSNITDAFLSQRKCEPKGPLINSEFYTGWLDHWGQPHSTIKTEAVASSLYDILARGASVNLYMFIGGTNFAYWNGANSPYAAQPTSYDYDAPLSEAGDLTEKYFALRNIIQKFEKVPEGPIPPSTPKFAYGKVTLEKLKTVGAALDILCPSGPIKSLYPLTFIQVKQHYGFVLYRTTLPQDCSNPAPLSSPLNGVHDRAYVAVDGIPQGVLERNNVITLNITGKAGATLDLLVENMGRVNYGAYINDFKGLVSNLTLSSNILTDWTIFPLDTEDAVRSHLGGWGHRDSGHHDEAWAHNSSNYTLPAFYMGNFSIPSGIPDLPQDTFIQFPGWTKGQVWINGFNLGRYWPARGPQLTLFVPQHILMTSAPNTITVLELEWAPCSSDDPELCAVTFVDRPVIGSSVTYDHPSKPVEKRLMPPPPQKNKDSWLDHV
modifications: N-linked glycans; about 9% of the total glycan composition is bisphosphorylated oligomannose (BPM7)
notes: human lysosomal β-galactosidase (GLB1), secreted from CHO cells as the precursor, nonlysosomal enzyme (not the lysosomally processed mature form); No tag is mentioned; PDB 3THC is another preparation, treated by limited proteolysis, with residues 648-677 not determined; also called β-galactosidase; lysosomal β-gal
In general, Kd refers to the equilibrium constant for the complex coming apart. The term stoichiometry N denotes a count of units in the complex or per binding partner. Regarding B1, in data set [1], the Kd was at most 2 nM and the “stoichiometry N” value is 2. In data set [2], this protein showed a Kd of 243 nM.

Values taken from publication PMC7521651, “Intracerebroventricular enzyme replacement therapy with β-galactosidase reverses brain pathologies due to GM1 gangliosidosis in mice” (The Journal of Biological Chemistry, 2019).
